Experiments:
[1] = target: T1, Feline FcRn (complex of FcRn-α subunit and β-microglobulin, C-terminal His tag) (feline, UniProt A0ABI7ZNY9 23-296; Q5MGS7 21-118); experiment: SPR Biacore, biotin-FcRn on SA chip, pH 6; pH 6
T1 construct: treated here as one molecule
Description: (§1) Feline FcRn was isolated, prepared and mutant Fc IgGs were assayed against feline FcRn according to Strietzel et. al., discussed above. Standard PCR was used to amplify feline FcRn-α subunit and β-microglobulin. FcRn-α subunit and β-microglobulin were co-transfected into HEK 293 cells and the FcRn complex was purified by IMAC affinity purification via the c-terminal His tag. FcRn complex was biotin labeled through BirA enzymatic biotinylatoin reaction. KD's were measured by Biacore T200 (GE Healthcare, Pittsburgh, PA, USA) or Biacore 8K (Cytiva, Marlborough, MA, USA) using a SA sensor chip.
(§2) FcRn was captured on the surface of the sensor using a modified SA capture method. 10 mM MES; 150 mM NaCl; 0.005% Tween20; 0.5 mg/mL BSA; pH6 was used as capture, method running buffer and titrations. 1×HBS-P, 0.5 mg/mL BSA; pH7.4 was also used for method running buffer and titrations. Fc mutant IgGs were flowed over receptor surfaces and affinity was determined using T200 evaluation software or Biacore Insight Evaluation software. Blank runs containing buffer only were subtracted out from all runs. Flow cells were regenerated using 50 mM Tris pH8 or pH9. Runs were performed at 15° C.

[2] = target: T1, Feline FcRn (complex of FcRn-α subunit …); experiment: SPR Biacore, biotin-FcRn on SA chip, pH 7.4
Description: as §1, §2

[3] = target: T1, Feline FcRn (complex of FcRn-α subunit …); experiment: SPR Biacore, biotin-FcRn on SA chip, pH 6
Description: as §1, §2

Binder	binding result [2]	Kd [3] [nM]	Kd [2] [nM]	also measured
mAb4 (felinized anti-IL31 antibody ZTS-5864) WT, feline IgG1a (antibody, The same holds for all mAb4 variants; also called mAb4 ID No. 1) heavy: DVQLVESGGDLVKPGGSLRLTCVASGFTFSDYAMSWVRQAPGKGLQWVAGIDSVGSGTSYADSVKGRFTISRDNAKNTLYLQMNSLKTEDTATYYCASGFPGSFEHWGQGTLVTVSSASTTAPSVFPLAPSCGTTSGATVALACLVLGYFPEPVTVSWNSGALTSGVHTFPAVLQASGLYSLSSMVTVPSSRWLSDTFTCNVAHPPSNTKVDKTVRKTDHPPGPKPCDCPKCPPPEMLGGPSIFIFPPKPKDTLSISRTPEVTCLVVDLGPDDSDVQITWFVDNTQVYTAKTSPREEQFNSTYRVVSVLPILHQDWLKGKEFKCKVNSKSLPSPIERTISKAKGQPHEPQVYVLPPAQEELSRNKVSVTCLIKSFHPPDIAVEWEITGQPEPENNYRTTPPQLDSDGTYFVYSKLSVDRSHWQRGNTYTCSVSHEALHSHHTQKSLTQSPGK VL: QSVLTQPSSVSGTLGQRITISCTGSSSNIGSGYVGWYQQVPGMGPKTVIYYNSDRPSGVPDRFSGSKSGSSGTLTITGLQAEDEADYYCSVYDRTFNAVFGGGT	–	–	–	Kd [1]: 32 nM
mAb4 (felinized anti-IL31 antibody ZTS-5864) S428M and S434W, feline IgG1a (antibody, also called mAb4 ID No. 36) heavy: DVQLVESGGDLVKPGGSLRLTCVASGFTFSDYAMSWVRQAPGKGLQWVAGIDSVGSGTSYADSVKGRFTISRDNAKNTLYLQMNSLKTEDTATYYCASGFPGSFEHWGQGTLVTVSSASTTAPSVFPLAPSCGTTSGATVALACLVLGYFPEPVTVSWNSGALTSGVHTFPAVLQASGLYSLSSMVTVPSSRWLSDTFTCNVAHPPSNTKVDKTVRKTDHPPGPKPCDCPKCPPPEMLGGPSIFIFPPKPKDTLSISRTPEVTCLVVDLGPDDSDVQITWFVDNTQVYTAKTSPREEQFNSTYRVVSVLPILHQDWLKGKEFKCKVNSKSLPSPIERTISKAKGQPHEPQVYVLPPAQEELSRNKVSVTCLIKSFHPPDIAVEWEITGQPEPENNYRTTPPQLDSDGTYFVYSKLSVDRSHWQRGNTYTCSVMHEALHWHHTQKSLTQSPGK VL: QSVLTQPSSVSGTLGQRITISCTGSSSNIGSGYVGWYQQVPGMGPKTVIYYNSDRPSGVPDRFSGSKSGSSGTLTITGLQAEDEADYYCSVYDRTFNAVFGGGT	–	6.83	5010	–
mAb4 (felinized anti-IL31 antibody ZTS-5864) S428M and S434F, feline IgG1a (antibody, also called mAb4 ID No. 33) heavy: DVQLVESGGDLVKPGGSLRLTCVASGFTFSDYAMSWVRQAPGKGLQWVAGIDSVGSGTSYADSVKGRFTISRDNAKNTLYLQMNSLKTEDTATYYCASGFPGSFEHWGQGTLVTVSSASTTAPSVFPLAPSCGTTSGATVALACLVLGYFPEPVTVSWNSGALTSGVHTFPAVLQASGLYSLSSMVTVPSSRWLSDTFTCNVAHPPSNTKVDKTVRKTDHPPGPKPCDCPKCPPPEMLGGPSIFIFPPKPKDTLSISRTPEVTCLVVDLGPDDSDVQITWFVDNTQVYTAKTSPREEQFNSTYRVVSVLPILHQDWLKGKEFKCKVNSKSLPSPIERTISKAKGQPHEPQVYVLPPAQEELSRNKVSVTCLIKSFHPPDIAVEWEITGQPEPENNYRTTPPQLDSDGTYFVYSKLSVDRSHWQRGNTYTCSVMHEALHFHHTQKSLTQSPGK VL: QSVLTQPSSVSGTLGQRITISCTGSSSNIGSGYVGWYQQVPGMGPKTVIYYNSDRPSGVPDRFSGSKSGSSGTLTITGLQAEDEADYYCSVYDRTFNAVFGGGT	–	4.29	4010	–
mAb4 (felinized anti-IL31 antibody ZTS-5864) S428Y and S434W, feline IgG1a (antibody, also called mAb4 ID No. 31) heavy: DVQLVESGGDLVKPGGSLRLTCVASGFTFSDYAMSWVRQAPGKGLQWVAGIDSVGSGTSYADSVKGRFTISRDNAKNTLYLQMNSLKTEDTATYYCASGFPGSFEHWGQGTLVTVSSASTTAPSVFPLAPSCGTTSGATVALACLVLGYFPEPVTVSWNSGALTSGVHTFPAVLQASGLYSLSSMVTVPSSRWLSDTFTCNVAHPPSNTKVDKTVRKTDHPPGPKPCDCPKCPPPEMLGGPSIFIFPPKPKDTLSISRTPEVTCLVVDLGPDDSDVQITWFVDNTQVYTAKTSPREEQFNSTYRVVSVLPILHQDWLKGKEFKCKVNSKSLPSPIERTISKAKGQPHEPQVYVLPPAQEELSRNKVSVTCLIKSFHPPDIAVEWEITGQPEPENNYRTTPPQLDSDGTYFVYSKLSVDRSHWQRGNTYTCSVYHEALHWHHTQKSLTQSPGK VL: QSVLTQPSSVSGTLGQRITISCTGSSSNIGSGYVGWYQQVPGMGPKTVIYYNSDRPSGVPDRFSGSKSGSSGTLTITGLQAEDEADYYCSVYDRTFNAVFGGGT	–	7.8	431	–

The next lines start with results.

binding result [2]	Kd [3] [nM]	Kd [2] [nM]	Binder	also measured
no binding	–	–	mAb4 (felinized anti-IL31 antibody ZTS-5864) S428W, feline IgG1a (antibody, also called mAb4 ID No. 19) heavy: DVQLVESGGDLVKPGGSLRLTCVASGFTFSDYAMSWVRQAPGKGLQWVAGIDSVGSGTSYADSVKGRFTISRDNAKNTLYLQMNSLKTEDTATYYCASGFPGSFEHWGQGTLVTVSSASTTAPSVFPLAPSCGTTSGATVALACLVLGYFPEPVTVSWNSGALTSGVHTFPAVLQASGLYSLSSMVTVPSSRWLSDTFTCNVAHPPSNTKVDKTVRKTDHPPGPKPCDCPKCPPPEMLGGPSIFIFPPKPKDTLSISRTPEVTCLVVDLGPDDSDVQITWFVDNTQVYTAKTSPREEQFNSTYRVVSVLPILHQDWLKGKEFKCKVNSKSLPSPIERTISKAKGQPHEPQVYVLPPAQEELSRNKVSVTCLIKSFHPPDIAVEWEITGQPEPENNYRTTPPQLDSDGTYFVYSKLSVDRSHWQRGNTYTCSVWHEALHSHHTQKSLTQSPGK VL: QSVLTQPSSVSGTLGQRITISCTGSSSNIGSGYVGWYQQVPGMGPKTVIYYNSDRPSGVPDRFSGSKSGSSGTLTITGLQAEDEADYYCSVYDRTFNAVFGGGT	–
no binding	–	–	mAb4 (felinized anti-IL31 antibody ZTS-5864) S428Q, feline IgG1a (antibody, also called mAb4 ID No. 15) heavy: DVQLVESGGDLVKPGGSLRLTCVASGFTFSDYAMSWVRQAPGKGLQWVAGIDSVGSGTSYADSVKGRFTISRDNAKNTLYLQMNSLKTEDTATYYCASGFPGSFEHWGQGTLVTVSSASTTAPSVFPLAPSCGTTSGATVALACLVLGYFPEPVTVSWNSGALTSGVHTFPAVLQASGLYSLSSMVTVPSSRWLSDTFTCNVAHPPSNTKVDKTVRKTDHPPGPKPCDCPKCPPPEMLGGPSIFIFPPKPKDTLSISRTPEVTCLVVDLGPDDSDVQITWFVDNTQVYTAKTSPREEQFNSTYRVVSVLPILHQDWLKGKEFKCKVNSKSLPSPIERTISKAKGQPHEPQVYVLPPAQEELSRNKVSVTCLIKSFHPPDIAVEWEITGQPEPENNYRTTPPQLDSDGTYFVYSKLSVDRSHWQRGNTYTCSVQHEALHSHHTQKSLTQSPGK VL: QSVLTQPSSVSGTLGQRITISCTGSSSNIGSGYVGWYQQVPGMGPKTVIYYNSDRPSGVPDRFSGSKSGSSGTLTITGLQAEDEADYYCSVYDRTFNAVFGGGT	–
no binding	–	–	mAb4 (felinized anti-IL31 antibody ZTS-5864) S428R, feline IgG1a (antibody, also called mAb4 ID No. 16) heavy: DVQLVESGGDLVKPGGSLRLTCVASGFTFSDYAMSWVRQAPGKGLQWVAGIDSVGSGTSYADSVKGRFTISRDNAKNTLYLQMNSLKTEDTATYYCASGFPGSFEHWGQGTLVTVSSASTTAPSVFPLAPSCGTTSGATVALACLVLGYFPEPVTVSWNSGALTSGVHTFPAVLQASGLYSLSSMVTVPSSRWLSDTFTCNVAHPPSNTKVDKTVRKTDHPPGPKPCDCPKCPPPEMLGGPSIFIFPPKPKDTLSISRTPEVTCLVVDLGPDDSDVQITWFVDNTQVYTAKTSPREEQFNSTYRVVSVLPILHQDWLKGKEFKCKVNSKSLPSPIERTISKAKGQPHEPQVYVLPPAQEELSRNKVSVTCLIKSFHPPDIAVEWEITGQPEPENNYRTTPPQLDSDGTYFVYSKLSVDRSHWQRGNTYTCSVRHEALHSHHTQKSLTQSPGK VL: QSVLTQPSSVSGTLGQRITISCTGSSSNIGSGYVGWYQQVPGMGPKTVIYYNSDRPSGVPDRFSGSKSGSSGTLTITGLQAEDEADYYCSVYDRTFNAVFGGGT	–
no binding	–	–	mAb4 (felinized anti-IL31 antibody ZTS-5864) S428T, feline IgG1a (antibody, also called mAb4 ID No. 17) heavy: DVQLVESGGDLVKPGGSLRLTCVASGFTFSDYAMSWVRQAPGKGLQWVAGIDSVGSGTSYADSVKGRFTISRDNAKNTLYLQMNSLKTEDTATYYCASGFPGSFEHWGQGTLVTVSSASTTAPSVFPLAPSCGTTSGATVALACLVLGYFPEPVTVSWNSGALTSGVHTFPAVLQASGLYSLSSMVTVPSSRWLSDTFTCNVAHPPSNTKVDKTVRKTDHPPGPKPCDCPKCPPPEMLGGPSIFIFPPKPKDTLSISRTPEVTCLVVDLGPDDSDVQITWFVDNTQVYTAKTSPREEQFNSTYRVVSVLPILHQDWLKGKEFKCKVNSKSLPSPIERTISKAKGQPHEPQVYVLPPAQEELSRNKVSVTCLIKSFHPPDIAVEWEITGQPEPENNYRTTPPQLDSDGTYFVYSKLSVDRSHWQRGNTYTCSVTHEALHSHHTQKSLTQSPGK VL: QSVLTQPSSVSGTLGQRITISCTGSSSNIGSGYVGWYQQVPGMGPKTVIYYNSDRPSGVPDRFSGSKSGSSGTLTITGLQAEDEADYYCSVYDRTFNAVFGGGT	–
no binding	–	–	mAb4 (felinized anti-IL31 antibody ZTS-5864) S428P, feline IgG1a (antibody, also called mAb4 ID No. 14) heavy: DVQLVESGGDLVKPGGSLRLTCVASGFTFSDYAMSWVRQAPGKGLQWVAGIDSVGSGTSYADSVKGRFTISRDNAKNTLYLQMNSLKTEDTATYYCASGFPGSFEHWGQGTLVTVSSASTTAPSVFPLAPSCGTTSGATVALACLVLGYFPEPVTVSWNSGALTSGVHTFPAVLQASGLYSLSSMVTVPSSRWLSDTFTCNVAHPPSNTKVDKTVRKTDHPPGPKPCDCPKCPPPEMLGGPSIFIFPPKPKDTLSISRTPEVTCLVVDLGPDDSDVQITWFVDNTQVYTAKTSPREEQFNSTYRVVSVLPILHQDWLKGKEFKCKVNSKSLPSPIERTISKAKGQPHEPQVYVLPPAQEELSRNKVSVTCLIKSFHPPDIAVEWEITGQPEPENNYRTTPPQLDSDGTYFVYSKLSVDRSHWQRGNTYTCSVPHEALHSHHTQKSLTQSPGK VL: QSVLTQPSSVSGTLGQRITISCTGSSSNIGSGYVGWYQQVPGMGPKTVIYYNSDRPSGVPDRFSGSKSGSSGTLTITGLQAEDEADYYCSVYDRTFNAVFGGGT	–

Source: US20260193335A1 (ZOETIS SERVICES, published 2026)
